Source: IntAct's records for PubMed 25910212

B1: Keratin, type II cytoskeletal 6A (Homo sapiens), P02538 (parent)
chain: MASTSTTIRSHSSSRRGFSANSARLPGVSRSGFSSVSVSRSRGSGGLGGACGGAGFGSRSLYGLGGSKRISIGGGSCAISGGYGSRAGGSYGFGGAGSGFGFGGGAGIGFGLGGGAGLAGGFGGPGFPVCPPGGIQEVTVNQSLLTPLNLQIDPTIQRVRAEEREQIKTLNNKFASFIDKVRFLEQQNKVLETKWTLLQEQGTKTVRQNLEPLFEQYINNLRRQLDSIVGERGRLDSELRGMQDLVEDFKNKYEDEINKRTAAENEFVTLKKDVDAAYMNKVELQAKADTLTDEINFLRALYDAELSQMQTHISDTSVVLSMDNNRNLDLDSIIAEVKAQYEEIAQRSRAEAESWYQTKYEELQVTAGRHGDDLRNTKQEIAEINRMIQRLRSEIDHVKKQCANLQAAIADAEQRGEMALKDAKNKLEGLEDALQKAKQDLARLLKEYQELMNVKLALDVEIATYRKLLEGEECRLNGEGVGQVNISVVQSTVSSGYGGASGVGSGLGLGGGSSYSYGSGLGVGGGFSSSSGRAIGGGLSSVGGGSSTIKYTTTSSSSRKSYKH
B2: Fructose-1,6-bisphosphatase 1 (Homo sapiens), P09467 (parent)
chain: MADQAPFDTDVNTLTRFVMEEGRKARGTGELTQLLNSLCTAVKAISSAVRKAGIAHLYGIAGSTNVTGDQVKKLDVLSNDLVMNMLKSSFATCVLVSEEDKHAIIVEPEKRGKYVVCFDPLDGSSNIDCLVSVGTIFGIYRKKSTDEPSEKDALQPGRNLVAAGYALYGSATMLVLAMDCGVNCFMLDPAIGEFILVDKDVKIKKKGKIYSLNEGYARDFDPAVTEYIQRKKFPPDNSAPYGARYVGSMVADVHRTLVYGGIFLYPANKKSPNGKLRLLYECNPMAYVMEKAGGMATTGKEAVLDVIPTDIHQRAPVILGSPDDVLEFLKVYEKHSAQ
partner: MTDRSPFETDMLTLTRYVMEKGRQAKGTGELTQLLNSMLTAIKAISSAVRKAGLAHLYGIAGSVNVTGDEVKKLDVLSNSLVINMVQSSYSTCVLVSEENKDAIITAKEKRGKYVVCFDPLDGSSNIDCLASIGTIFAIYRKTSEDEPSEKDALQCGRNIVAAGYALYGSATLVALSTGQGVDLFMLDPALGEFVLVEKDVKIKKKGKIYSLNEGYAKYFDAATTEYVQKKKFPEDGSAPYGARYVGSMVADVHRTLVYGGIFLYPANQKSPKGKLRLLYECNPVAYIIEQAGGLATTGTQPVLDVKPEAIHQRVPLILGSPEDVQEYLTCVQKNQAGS

Variants of: B1
Settings: with KRT15, P19012
KRT15, P19012, sequence (P19012 whole entry): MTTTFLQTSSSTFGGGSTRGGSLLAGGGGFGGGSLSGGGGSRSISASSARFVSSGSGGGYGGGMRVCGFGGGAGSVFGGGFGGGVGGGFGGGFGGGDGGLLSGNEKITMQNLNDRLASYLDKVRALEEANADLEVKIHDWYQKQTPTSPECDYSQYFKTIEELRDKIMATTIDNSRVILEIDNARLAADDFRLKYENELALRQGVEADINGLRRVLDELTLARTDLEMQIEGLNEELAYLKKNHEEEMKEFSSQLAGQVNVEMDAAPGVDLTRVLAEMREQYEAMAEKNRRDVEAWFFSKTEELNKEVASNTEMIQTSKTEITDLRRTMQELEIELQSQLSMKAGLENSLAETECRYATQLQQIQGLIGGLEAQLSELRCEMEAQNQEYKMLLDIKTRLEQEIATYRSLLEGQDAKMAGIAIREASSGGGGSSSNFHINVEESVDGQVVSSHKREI

Variant	effect of a mutation on the interaction
F174V	with no effect
I462S	with no effect
A463P	with no effect

Variants of: B1
Settings: with KRT40, Q6A162
KRT40, Q6A162, sequence (Q6A162 whole entry): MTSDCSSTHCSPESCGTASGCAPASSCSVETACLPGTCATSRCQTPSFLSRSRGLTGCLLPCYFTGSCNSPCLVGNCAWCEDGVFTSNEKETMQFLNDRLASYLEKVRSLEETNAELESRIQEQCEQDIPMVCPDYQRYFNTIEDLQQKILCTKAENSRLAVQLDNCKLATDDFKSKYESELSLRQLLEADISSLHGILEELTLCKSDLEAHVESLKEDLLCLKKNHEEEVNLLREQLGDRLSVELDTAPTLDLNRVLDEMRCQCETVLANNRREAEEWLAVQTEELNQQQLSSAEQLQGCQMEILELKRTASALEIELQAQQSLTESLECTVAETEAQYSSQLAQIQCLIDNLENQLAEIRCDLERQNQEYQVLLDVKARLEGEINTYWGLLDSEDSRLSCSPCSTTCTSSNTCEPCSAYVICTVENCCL

Variant	effect of a mutation on the interaction
F174V	with no effect
I462S	with no effect
A463P	with no effect

Variants of: B1
Settings: with k1h1_human KRT31, Q15323
k1h1_human KRT31, Q15323, sequence (Q15323 whole entry): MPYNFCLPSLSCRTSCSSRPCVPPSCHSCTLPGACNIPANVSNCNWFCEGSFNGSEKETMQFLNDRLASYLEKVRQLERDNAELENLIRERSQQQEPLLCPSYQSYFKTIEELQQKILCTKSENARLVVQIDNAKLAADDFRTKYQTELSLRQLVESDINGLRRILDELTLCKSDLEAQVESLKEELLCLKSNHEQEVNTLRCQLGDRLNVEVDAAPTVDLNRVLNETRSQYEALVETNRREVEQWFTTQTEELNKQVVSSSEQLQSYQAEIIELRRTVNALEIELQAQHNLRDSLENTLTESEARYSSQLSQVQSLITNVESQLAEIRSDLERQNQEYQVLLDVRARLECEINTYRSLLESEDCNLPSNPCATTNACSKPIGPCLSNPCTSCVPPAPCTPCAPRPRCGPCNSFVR

Variant	effect of a mutation on the interaction
F174V	with no effect
I462S	with no effect
A463P	with no effect

Variants of: B1
Settings: with tfp11_human TFIP11, Q9UBB9
tfp11_human TFIP11, Q9UBB9, sequence (Q9UBB9 whole entry): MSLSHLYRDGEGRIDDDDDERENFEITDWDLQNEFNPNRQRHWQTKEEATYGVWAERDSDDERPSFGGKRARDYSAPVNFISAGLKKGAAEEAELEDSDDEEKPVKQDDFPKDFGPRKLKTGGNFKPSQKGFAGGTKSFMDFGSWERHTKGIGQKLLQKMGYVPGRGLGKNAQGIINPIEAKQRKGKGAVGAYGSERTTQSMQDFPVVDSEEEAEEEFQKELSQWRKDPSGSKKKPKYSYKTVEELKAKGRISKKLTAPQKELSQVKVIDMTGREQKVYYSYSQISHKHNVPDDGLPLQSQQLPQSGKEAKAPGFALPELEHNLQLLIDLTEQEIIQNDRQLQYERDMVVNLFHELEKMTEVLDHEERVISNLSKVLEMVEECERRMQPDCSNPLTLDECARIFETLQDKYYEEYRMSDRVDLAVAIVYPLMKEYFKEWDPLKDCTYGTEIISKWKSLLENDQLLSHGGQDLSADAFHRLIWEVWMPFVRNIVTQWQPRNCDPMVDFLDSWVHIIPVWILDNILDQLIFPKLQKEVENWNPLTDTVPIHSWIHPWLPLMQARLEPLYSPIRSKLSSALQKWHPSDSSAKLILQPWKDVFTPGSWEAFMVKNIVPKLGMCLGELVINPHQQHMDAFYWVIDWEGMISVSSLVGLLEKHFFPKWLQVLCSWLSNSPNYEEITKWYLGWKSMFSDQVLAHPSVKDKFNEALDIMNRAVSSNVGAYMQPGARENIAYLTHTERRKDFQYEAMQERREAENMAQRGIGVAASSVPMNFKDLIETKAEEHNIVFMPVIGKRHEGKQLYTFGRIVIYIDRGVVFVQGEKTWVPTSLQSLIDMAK

Variant	effect of a mutation on the interaction
F174V	with no effect
I462S	with no effect
A463P	disrupting interaction strength

Variants of: B1
Settings: with goga2_human GOLGA2, Q08379
goga2_human GOLGA2, Q08379, sequence (Q08379 whole entry): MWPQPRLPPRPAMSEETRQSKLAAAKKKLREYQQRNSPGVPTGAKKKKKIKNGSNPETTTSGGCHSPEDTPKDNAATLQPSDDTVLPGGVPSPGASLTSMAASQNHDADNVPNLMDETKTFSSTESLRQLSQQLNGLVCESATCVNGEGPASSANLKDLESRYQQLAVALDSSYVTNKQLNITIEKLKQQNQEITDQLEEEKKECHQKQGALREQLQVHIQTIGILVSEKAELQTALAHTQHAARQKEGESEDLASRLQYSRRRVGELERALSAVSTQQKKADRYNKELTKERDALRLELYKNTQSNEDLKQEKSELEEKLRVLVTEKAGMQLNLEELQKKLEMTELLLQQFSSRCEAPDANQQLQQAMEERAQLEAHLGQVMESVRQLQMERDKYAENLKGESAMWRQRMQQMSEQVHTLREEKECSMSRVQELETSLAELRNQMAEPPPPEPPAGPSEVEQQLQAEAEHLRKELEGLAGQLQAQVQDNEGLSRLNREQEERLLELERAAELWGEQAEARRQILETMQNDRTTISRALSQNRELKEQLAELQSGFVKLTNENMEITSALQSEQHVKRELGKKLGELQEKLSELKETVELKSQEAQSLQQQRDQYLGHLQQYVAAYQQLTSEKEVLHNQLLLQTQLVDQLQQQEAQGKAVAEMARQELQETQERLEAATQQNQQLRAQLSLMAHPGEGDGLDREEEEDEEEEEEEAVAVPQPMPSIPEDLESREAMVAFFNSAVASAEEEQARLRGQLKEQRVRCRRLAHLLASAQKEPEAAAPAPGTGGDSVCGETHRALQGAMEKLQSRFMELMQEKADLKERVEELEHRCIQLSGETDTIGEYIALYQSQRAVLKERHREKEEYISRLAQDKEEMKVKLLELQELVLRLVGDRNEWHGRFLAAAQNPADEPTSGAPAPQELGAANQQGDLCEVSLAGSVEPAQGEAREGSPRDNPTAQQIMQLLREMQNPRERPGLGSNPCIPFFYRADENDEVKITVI

Variant	effect of a mutation on the interaction
F174V	with no effect
I462S	with no effect
A463P	with no effect
N21S	with no effect
F249L	with no effect
V523F	with no effect
T552S	with no effect

Variants of: B1
Settings: with KRT40, Q6A162
Remark: another data set of the same source

Variant	effect of a mutation on the interaction
I462S	disrupting interaction strength
A463P	disrupting interaction strength
N21S	with no effect
F249L	with no effect
V523F	with no effect
T552S	with no effect

Variants of: B1
Settings: with tfp11_human TFIP11, Q9UBB9
Remark: another data set of the same source

Variant	effect of a mutation on the interaction
I462S	disrupting interaction strength
N21S	with no effect
F249L	with no effect
V523F	with no effect
T552S	with no effect

Variants of: B1
Settings: with KRT15, P19012
Remark: another data set of the same source

Variant	effect of a mutation on the interaction
N21S	with no effect
F249L	with no effect
V523F	with no effect
T552S	with no effect

Variants of: B1
Settings: with k1h1_human KRT31, Q15323
Remark: another data set of the same source

Variant	effect of a mutation on the interaction
N21S	with no effect
F249L	with no effect
V523F	with no effect
T552S	with no effect

Variants of: B2
Settings: with FBP2, O00757

Variant	effect of a mutation on the interaction
G164S	with no effect
F194S	with no effect
N213K	with no effect
G260R	with no effect

Variants of: B2
Settings: with FBP2, O00757
Remark: another data set of the same source

Variant	effect of a mutation on the interaction
F194S	disrupting interaction strength
G260R	disrupting interaction strength
R218K	with no effect
F233I	with no effect
